System: D54-MG xenografted human glioma tumors
Experiment: Brain tumor targeting after intravenous injection (D54-MG/SCID mouse model)
Assay type: in vivo
Conditions: tail vein injection, measured after 24 hours
Excerpt: These experiments consisted of five research studies utilizing the […] mouse model.

## 125I-EGF: 125I-labeled EGF used as a control; EGF receptor is up-regulated in these tumors
  Targeting of brain tumor: did not localize to the brain tumors to any appreciable extent
